In PMC10397247:

Assays:
Core_NNNN-es_KEEK = biological target: T1, Core_NNNN-es_KEEK; test: two-hybrid library CCmax; details: mean of both orientations;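 further: natural log of median RNA to DNA barcode read ratio; higher means stronger binding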
T1 chain: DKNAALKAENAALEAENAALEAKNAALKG

4H2696-bN = biological target: T2, 4H2696-bN; test: two-hybrid library CCNG1;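 further: natural log of median RNA to DNA barcode read ratio; higher means stronger binding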
T2 chain: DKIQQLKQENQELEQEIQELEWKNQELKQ

4H491-bN = biological target: T3, 4H491-bN; test: two-hybrid library CCNG1;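 further: natural log of median RNA to DNA barcode read ratio; higher means stronger binding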
T3 chain: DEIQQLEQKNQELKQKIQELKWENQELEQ

4H342-bN = biological target: T4, 4H342-bN; test: two-hybrid library CCNG1;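 further: natural log of median RNA to DNA barcode read ratio; higher means stronger binding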
T4 chain: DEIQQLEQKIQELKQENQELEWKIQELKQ

4H2944-bN = biological target: T5, 4H2944-bN; test: two-hybrid library CCNG1
T5 chain: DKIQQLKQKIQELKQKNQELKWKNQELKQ

4H2883-bN = biological target: T6, 4H2883-bN; test: two-hybrid library CCNG1
T6 chain: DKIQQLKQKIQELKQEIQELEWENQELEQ

4H2937-bN = biological target: T7, 4H2937-bN; test: two-hybrid library CCNG1
T7 chain: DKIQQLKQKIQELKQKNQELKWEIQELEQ

4H19-bN = biological target: T8, 4H19-bN; test: two-hybrid library CCNG1
T8 chain: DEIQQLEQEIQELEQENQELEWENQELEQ

4H48-bN = biological target: T9, 4H48-bN; test: two-hybrid library CCNG1
T9 chain: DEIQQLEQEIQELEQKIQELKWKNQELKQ

Core_IIIN-es_KEEK = biological target: T10, Core_IIIN-es_KEEK; test: two-hybrid library CCmax; details: mean of both orientations
T10 chain: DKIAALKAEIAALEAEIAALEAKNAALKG

Core_IIII-es_KEEK = biological target: T11, Core_IIII-es_KEEK; test: two-hybrid library CCmax; details: mean of both orientations
T11 chain: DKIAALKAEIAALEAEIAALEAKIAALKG

**Q.** For DENAALEAKNAALKAKNAALKAENAALEG [Core_NNNN-es_EKKE], which interaction score (Core_NNNN-es_KEEK) is on record?
**A.** -0.488

**Q.** Which results are given for DEIQQLEQEIQELEQENQELEWENQELEQ [4H19-bN]?
**A.** interaction score (4H2696-bN): -0.528; interaction score (4H491-bN): -0.636; interaction score (4H342-bN): -1.48; interaction score (4H2944-bN): 2.27; interaction score (4H2883-bN): -2.16; interaction score (4H2937-bN): -0.594; interaction score (4H19-bN): -0.738; interaction score (4H48-bN): -0.58

**Q.** For DEIAALEAKIAALKAKIAALKAENAALEG [Core_IIIN-es_EKKE], which interaction score (Core_IIIN-es_KEEK) is on record?
**A.** 1.73

**Q.** DEIAALEAKIAALKAKIAALKAEIAALEG [Core_IIII-es_EKKE] was tested. Which interaction score (Core_IIII-es_KEEK) did it give?
**A.** 2.36
